Experimental data as given in PMC12678531, “Cytosolic TOP3α facilitates mitochondrial DNA sensing by cGAS”.

Biological target: cGAS (Homo sapiens, UniProt Q8N884 1-522)
Assay: EMSA; 300 pmol protein, 50 pmol DNA in 10 uL; EMSA: Beyotime GS005 binding buffer, 37 C, 15 min, 10 uL, 6% PAGE in TBE at 4 C; extract pull-down: 50 mM Tris-HCl pH 7.5, 150 mM NaCl, 0.025% digitonin
Details: protein: recombinant; tags: C-terminal LE-6xHis; chain copies: 2; label: none for EMSA (GelRed stain); blunt

cGAS, sequence (Q8N884 whole entry): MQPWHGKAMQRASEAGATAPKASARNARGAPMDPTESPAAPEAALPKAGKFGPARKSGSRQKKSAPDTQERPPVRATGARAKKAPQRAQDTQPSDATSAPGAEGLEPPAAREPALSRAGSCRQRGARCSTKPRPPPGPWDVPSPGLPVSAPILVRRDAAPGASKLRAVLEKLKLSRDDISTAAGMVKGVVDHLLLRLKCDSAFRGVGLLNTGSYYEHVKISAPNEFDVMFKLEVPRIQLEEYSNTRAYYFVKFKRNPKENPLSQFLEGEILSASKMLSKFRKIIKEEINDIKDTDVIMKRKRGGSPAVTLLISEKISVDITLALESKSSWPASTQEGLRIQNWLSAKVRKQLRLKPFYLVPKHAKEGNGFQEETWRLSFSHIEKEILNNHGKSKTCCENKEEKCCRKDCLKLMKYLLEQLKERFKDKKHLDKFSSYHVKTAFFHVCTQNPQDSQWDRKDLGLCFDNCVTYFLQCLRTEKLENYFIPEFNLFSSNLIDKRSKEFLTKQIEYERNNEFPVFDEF

B1: DNA2 (30 bp) (dsDNA)
DNA 1: CCGAAACCAGACGAGCTACCTAAGAACAGC
DNA 2: GCTGTTCTTAGGTAGCTCGTCTGGTTTCGG
- binding result: binds
